Laboratory results published in the DeepSol protein solubility set.

assay: soluble on expression in E. coli; label from the status in PepcDB or PDB records

Row | Sequence | soluble on expression in E. coli
1 | MASSAQSGGSSGGPAVPTVQRGIIKMVLSGCAIIVRGQPRGGPPPERQINLSNIRAGNLARRAAATQPDAKDTPDEPWAFPAREFLRKKLIGKEVCFTIENKTPQGREYGMIYLGKDTNGENIAESLVAEGLATRREGMRANNPEQNRLSECEEQAKAAKKGMWSEGNGSHTIRDLKYTIENPRHFVDSHHQKPVNAIIEHVRDGSVVRALLLPDYYLVTVMLSGIKCPTFRREADGSETPEPFAAEAKFFTESRLLQRDVQIILESCHNQNILGTILHPNGNITELLLKEGFARCVDWSIAVYTRGAEKLRAAERVAKERRLRIWRDYVAPTANLDQKDKQFVAKVMQVLNADAIVVKLNSGDYKTIHLSSIRPPRLEGENTQDKNKKLRPLYDIPYMFEAREFLRKKLIGKKVNVTVDYIRPASPATETVPAFSERTCATVTIGGINIAEALVSKGLATVIRYRQDDDQRSSHYDELLAAEARAIKNGKGLHSKKEVPIHRVADISGDTQKAKQFLPFLQRAGRSEAVVEYVFSGSRLKLYLPKETCLITFLLAGIECPRGARNLPGLVQEGEPFSEEATLFTKELVLQREVEVEVESMDKAGNFIGWLHIDGANLSVLLVEHALSKVHFTAERSSYYKSLLSAEEAAKQKKEKVWAHYEEQPVEEVMPVLEEKERSASYKPVFVTEITDDLHFYVQDVETGTQLEKLMENMRNDIASHPPVEGSYAPRRGEFCIAKFVDGEWYRARVEKVESPAKIHVFYIDYGNREVLPSTRLGTLSPAFSTRVLPAQATEYAFAFIQVPQDDDARTDAVDSVVRDIQNTQCLLNVEHLSAGCPHVTLQFADSKGDVGLGLVKEGLVMVEVRKEKQFQKVITEYLNAQESAKSARLNLWRYGDFRADDADEFGYSR | soluble
2 | MGSDKIHHHHHHMTEYKKILVVINPTVDHQAALARAVELATKSNASITAFLSIYDFSYEMTSILSSHEREAMRQGVIDQRSAWLDTAIAPFNSAGVAIDSKVIWHNRPFESVINCALEGQYDLIVKSTHEHDKLKAVIFTPTDWHLMRKAPMPVLMVKEHDWPVAGKILCALNVASEDSEHQTLNGKIIEHAKDLATKFSADVHLVNGYPGTPVNLAIELPDFDAHAYNNNIRMQHQSRVECLAQAYDIPLDRCHVEEGLPEDVIPEVADRIDAELVILGTVGRTGFSAALIGNTAEHVIDSIRCDLLAIKPEGYVSPLAE | not soluble
3 | MGSDKIHHHHHHMYGIVIVEDEELERQALRTILTENIDGIRILGEARTGTEAVALIDSCEIDLMLVDINIPNLNGLEVIRHLRDRHADTKVIITTAYDYFETTRTAIQLKVDEYLLKPIRTQALVTTIQSCIGQLGAGRQCRELVGRIADLVEQDGYQEGVTLVRRHIEWICTQRGHVPRDLILDFAGALVALARDKGLRLPDALTQQIGQLRTMPLDAQTGYQALGTFLGVVDLLFDVTGERFGYSSNTVKKVLNYIERNLTKRITLEDAAEYANISPSYLSRMFKKTLNVNFISYLTTRRIELAKETLIGTERPITAISQELSYSDVNYFCKSFKKEVGVSPTEYRRQSRLAQGAPPPREAALATG | not soluble
4 | MTQDELYMKEAIKEAKKAEEKGEVPIGAVLVINGEIIARAHNLRETEQRSIAHAEMLVIDEACKALGTWRLEGATLYVTLEPCPMCAGAVVLSRVEKVVFGAFDPKGGCSGTLMNLLQEERFNHQAEVVSGVLEEECGGMLSAFFRELRKKKKAARKNLSEMGHHHHHHSH | not soluble
5 | MSCCKECGHTLENVEVEAYEKRQVFDIPPVNLIVTEHKSQIKTCPHCGRINKAVFPESVKYPVQYGPNILASAIYCKNHHFIPYERISEFFEDIMGIKICPATIIRAEKECFQNLECFENIIREKLMTSYVVHFDETGMKIEGKRHWLHVASNDKYTCYLPHSKRGAEAIDAMGILPEFKGVAVHDGWKPYNVYDCDHAL | not soluble
6 | MAELSDQEMLRYNRQIILRGFDFDGQEALKDSRVLIVGLGGLGCAASQYLASAGVGNLTLLDFDTVSLSNLQRQTLHSDATVGQPKVESARDALTRINPHIAITPVNALLDDAELAALIAEHDLVLDCTDNVAVRNQLNAGCFAAKVPLVSGAAIRMEGQITVFTYQDGEPCYRCLSRLFGENALTCVEAGVMAPLIGVIGSLQAMEAIKMLAGYGKPASGKIVMYDAMTCQFREMKLMRNPGCEVCGQ | soluble
7 | MGSDKIHHHHHHMSQPLLSLPIDVLNIISKAMPTTLFQQLATQCTEVSFLNTGISNVNIKLSCEDGDKVLRVNQPHSNWCDRSLEVECWQAAIVANIAPVLIWVSDDKQVYLSEFIHQPETDWSIFASMRSHLSLGQSTNQSISAVDAVPLLSALFCKLSTLPVPNKSITVTEQWQQYAYQLDSLTESQIDPQWHDAWQQLLRLNGLVRHWLSQLEACVLLPTFCHRDLTPHNLLLSGRAPHQLFCIDYEYAVASHPLFDLASVVASHKLSTIQVNQLIDNVIMQYCQAASLTDVAAAKAALPAAINCFWLFSAMWALLMAAKEPQKVTQYLQYFTYYLTLITC | not soluble
8 | MSLNDGNAMGQVIQIDEARIRDHLGEMVRGTVEETLNAMLEAEADQLCGAGRYERSPARQDTRAGSYERTLQTKAGDVNLKVPKLRRQTFETAIIERYRRRESSVEEALIEMYLAGISVRRVEDITEALWGTRVSPSTVSNLNKKIYAKIEAWRNRRIEGEHPYLYLDGIVMKRSWAGEVRNVSLLVASAVNAEGFREILGICEGAKEDKSGWSSFLRHLVDRGLKGVQLVVSDACRGLVESVADYLPEARYQRCMVHFYRNVFSHVPSTRVHEVSHMLKAIHAQESRAAADEKARTVIADLRASRMAKAADLVEQAVHETLAYYAFPDIHWRKIRTNNPLERIMKEIRRRTRVVGAFPDGQSCLNLAAARLRHIAGTAWSTKCYMNMRPLYQPQLSETGAVAEGHHHHHH | soluble
9 | MKLPAPPVLLFLCGMFSLPMALADSGIQLDTPKGGWRTRAMDGEQYIQEVNYPASSVNTPQGQADTARIRGQIKGAPKANKEPGKLIVNGVSMPLKFDEQGSFDRPYAFPNGSNSVEVRSPDGQQRQRVQFLNTGGGVTPPKLRVLLSWDSDNTDLDLHLVTPDGAHIWYGDRVAPNGATLDVDVTTGYGPEIFSMPAPLKGQYLVYVNYYGGGYRSDDDEDGGQENAVQPLTTAQVTVITEEGTPDEKSETFVVPMRAPGELTLVRSFSYPLEHHHHHH | not soluble
10 | MGSDKIHHHHHHMDIIREITPLSEKDCFYIVDRRKTEFTYPIHCHSEYELNFIEHAPGVRRVVGDSAEVIGEYELVLITGKELEHVWEQNACKSPLIHEITIQFSPDLFGKNLLEKNQFNSIRKMLEKAQCGISFPMSSILKVYHLLEKLVSEEQSFYAVINFLTILYELSVEENYKVLASSSFAKITDIHSESRRIQKVQNYINERYQQDIRLNQLAELVGMAPSAFSRFFKLRTGKTLSDYITDIRIGYAARMLVDTQRSIAEICYDCGFNNLSNFNRIFKKKKNCSPKEFRDNYKKTKIIV | not soluble
11 | MSNTTGQWCDGNSVELLINGEDFYARVFECIRAARKEVLIETFIIFEDRIGEGLQQALLQAAANGAKVVVTVDDYGTSDLSSVFVKTMIDAGIQIQLFDPRPRFMGMRTNLFRRLHRKVVVIDGELGFIGGINYSVDHMTDTGVTAKQDYAVLVRGPIVGDIHHSALNMLSKVVRDKLPPIALKLDRAGDASMLLAER | not soluble
12 | MPITWMRMRPWLEMQINSNQIPGLIWINKEEMIFQIPWKHAAKHGWDINKDACLFRSWAIHTGRYKAGEKEPDPKTWKANFRCAMNSLPDIEEVKDQSRNKGSSAVRVYRMLP | soluble
13 | MPTNQDLQLAAHLRSQVTTLTRRLRREAQADPVQFSQLVVLGAIDRLGGDVTPSELAAAERMRSSNLAALLRELERGGLIVRHADPQDGRRTRVSLSSEGRRNLYGNRAKREEWLVRAMHACLDESERALLAAAGPLLTRLAQFEEP | soluble
14 | DKPLSNMKILTLGKLSRNKDEVKAMIEKLGGKLTGTANKASLCISTKKEVEKMNKKMEEVKEANIRVVSEDFLQDVSASTKSLQELFLAHILSSWGAEVK | soluble
15 | MGLKKCGLNLSRDNKELKPHGTIDFPCAGYSSCYRDSEDDIIPWHWHPELEILYIKSGNLKLKLPEKTFHLTPGDGFIVNSNVLHYAVAEPLCELHSIVFSPLLITGWEGSVFAEKYIGPLVRCPSFDGCSLNCLFPEPEMFENLFTAAFHALAEDLPGYEFTLREALSKLCYALCLRFGPETGDDCPAPSPDAERLRRMLDYIHCHYSEPLKLSQIAEAADIGERECLRCFSRMIQVSPIQYLLKYRVNQSASLLLREPGKNITAIAGGCGFDSPGNFSRIFKRYYKCSPKEYRSRNKE | soluble
16 | MSATGKVSRPIQVFTRANYFFKLIFQFKVRKYNSLTVERIFIRAMCGSDDSFDDFVPDSQEPASSRTRNQDHLDDDEVPCSQRPDAANDTMVEDLDEGDEPAHDESEDIIKILVATDIHCGYGENKANIHMDAVNTFEEVLQIATEQKVDMILLGGDLFHENNPSREVQHRVTQLLRQYCLNGNPIALEFLSDASVNFNQSVFGHVNYYDQNLNVGLPIFTIHGNHDDLSGKGLTALDLLHESGLVNLFGKHSNIQEFIVSPILLRKGETRLALYGIGSQRDDRLVRAFKNNSISFLRPNAGAEDWFNLFVLHQNRPRRAMHRSTGNFLPESLIPQFFDLLIWGHEHECKPDPQYVASSEAVGDGFYILQPGSTVATSLTPEEALQKNAFLIKIKGRKFASKPIPLQTVRPMVCDELLLDKIPPGSRPILKTDRPKHTDGRYIDEIAIEAKINEMITTAKAKRRPRQPELPLIRLKVIYDGDWLNITPANAKRIGLRYENVVANAVDMVFIKKNNKPKEGKLQTENEKNITEMADEMGQVSATNLQTIINDYFINQPLVDQMTVLKPIGIGRALEQYSAIEEGGLATSANRNFDSCLMHQIDVVRKTLKKMPLPPINDPSDLDKFRDLITKDLYDMKKADSERFKNPVADVEMEEDEDDPQYYMPPQSTSRTNYASGSEDEVANSDEEMGSSISRHSKQPTTRGRGRGARGAGASRETTRGRSNKVVSTRQIDSDGFEIINDSPSPPPASRSTRGKARGKSAPSKKRDLSFF | not soluble
17 | MSLKITRITVYQVDLPLEHPYWLSGGRLKFELLDATLVKLETDAGITGWGEGTPWGHTYVPAHGPGIRAGIETMAPFVLGLDPRRLLDVERAMDIALPGHLYAKSPIDMACWDIAGQAAGLPIADLMGGGSRTPRPIASSVGAKSVEETRAVIDRYRQRGYVAHSVKIGGDVERDIARIRDVEDIREPGEIVLYDVNRGWTRQQALRVMRATEDLHVMFEQPGETLDDIAAIRPLHSAPVSVDECLVTLQDAARVARDGLAEVFGIKLNRVGGLTRAARMRDIALTHGIDMFVMATGGSVLADAEALHLAATIPDHACHAVWACQDMLTVDIAGGRGPRNIDGHLHLPETPGLGVHPDEDALGDPVAVYSEGHHHHHH | soluble
18 | GSMTDGDYDYLIKLLALGDSGVGKTTFLYRYTDNKFNPKFITTVGIDFREKRVVYDTQGADGASGKAFKVHLQLWDTAGLERFRSLTTAFFRDAMGFLLMFDLTSQQSFLNVRNWMSQLQANAYCENPDIVLIGNKADLPDQREVNERQARELAEKYGIPYFETSAATGQNVEKSVETLLDLIMKRMEKCVEKTQVPDTVNGGNSGKLDGEKPAEKKCAC | soluble
19 | MGEAYAEVFPDPDGISGHVKGVVDINAPPEKVWRIMTDCAAAKVMITTLAVCRIVEGDMARGWDIREHVTRRNLVFPGLRIVFRSDYEPYSRIKFKLVGGDLKVEQGEWKLQALDGGRRTRVLYDNRLAVDWPVPKALIREALRKDTPKVLMNLKRLCELEHHHHHH | not soluble
